In article PMC2139591:

Target: NGF-specific-receptor-like molecule (NSR) from C 1300 neuroblastoma cells (mouse (endogenous in C 1300 NB cells))
Assay: radioligand binding

Ka: 1e+07 M⁻¹
Substance: nerve growth factor (NGF), mouse salivary glands (from UniProt P01139 122-241) (ligand)
